Test results reported in article PMC4461266 (PLoS Pathogens, 2015).

Biological target: PR8-PB1-GST (influenza A virus A/Puerto Rico/8/1934 …, UniProt P03431 1-757)
Assay: pull-down
Conditions: both partners purified

B1: TRIM32-HIS (natural protein, human, UniProt Q13049 1-653, looked up)
chain: MAAAAASHLNLDALREVLECPICMESFTEEQLRPKLLHCGHTICRQCLEKLLASSINGVRCPFCSKITRITSLTQLTDNLTVLKIIDTAGLSEAVGLLMCRSCGRRLPRQFCRSCGLVLCEPCREADHQPPGHCTLPVKEAAEERRRDFGEKLTRLRELMGELQRRKAALEGVSKDLQARYKAVLQEYGHEERRVQDELARSRKFFTGSLAEVEKSNSQVVEEQSYLLNIAEVQAVSRCDYFLAKIKQADVALLEETADEEEPELTASLPRELTLQDVELLKVGHVGPLQIGQAVKKPRTVNVEDSWAMEATASAASTSVTFREMDMSPEEVVASPRASPAKQRGPEAASNIQQCLFLKKMGAKGSTPGMFNLPVSLYVTSQGEVLVADRGNYRIQVFTRKGFLKEIRRSPSGIDSFVLSFLGADLPNLTPLSVAMNCQGLIGVTDSYDNSLKVYTLDGHCVACHRSQLSKPWGITALPSGQFVVTDVEGGKLWCFTVDRGSGVVKYSCLCSAVRPKFVTCDAEGTVYFTQGLGLNLENRQNEHHLEGGFSIGSVGPDGQLGRQISHFFSENEDFRCIAGMCVDARGDLIVADSSRKEILHFPKGGGYSVLIREGLTCPVGIALTPKGQLLVLDCWDHCIKIYSYHLRRYSTP
notes: also called HIS-TRIM32; HIS-tagged TRIM32
- binding result: binds
